In patent US20240293518A1 (HEALTH RESEARCH, published 2024):

Legend:
[1] = target: ErbB2/delD2, human ErbB2 with deletion of ECD subdomain 2 (deletion of amino acids 196-320) (human) (UniProt P04626); assay: ELISA; panel e; cell lysates; settings: ligand
[2] = target: ErbB2/delD4, human ErbB2 with deletion of ECD subdomain 4 (deletion of amino acids 489-560) (human) (UniProt P04626); assay: ELISA; panel e; cell lysates; settings: ligand
[3] = target: T1, ErbB2 p95 fragment (minus ECD) (human, UniProt P04626 648-1255, limits assumed); assay: co-immunoprecipitation with a PEPD antibody from lysates of APMA-treated CHO-K1/ErbB2 cells, western blot
T1 construct: domain: trans-membrane and intracellular regions (p95 fragment, minus ECD); Generated in CHO-K1/ErbB2 cells by 1 mM APMA for 0.25 h and tested in cell lysates; also called trans-membrane and intracellular regions of ErbB2
Description: FIG. 8. Data showing validation of a cell line used in the present disclosure, and lack of binding of PEPD to the transmembrane and intracellular regions of human ErbB2. (a) CHO-K1 cells were transiently transfected with an ErbB2-expressing plasmid (pCMV6-XL5-ERBB2) or the empty plasmid for 24 h. Human bladder cancer RT-4 cells and human breast cancer MCF-7 cells were untreated and were used as positive controls for ErbB1, ErbB3 and ErbB4. Cell lysates were analyzed by western blotting. GAPDH is a loading control. (b) CHO-K1 cells stably expressing ErbB2 (CHO-K1/ErbB2 cells) were treated with 1 mM APMA for 0.25 h. Cell lysates were then prepared and analyzed by western blotting (the first lane on the right). The same cell lysates were mixed with 1 μM PEPD, which were then incubated with a PEPD antibody or an isotype-matched IgG, pulled down with protein G-agarose, and analyzed by western blotting.
Immunoprecipitation. PEPD was incubated with ErbB2/ECD-Fc, ErbB3/ECD-Fc, ErbB4/ECD-Fc or Fc in binding buffer for 2 h at 37° C., followed by pull down with protein G-sepharose beads. The immunoprecipitates were washed with IP washing buffer and analyzed by western blotting. […] The immunoprecipitates were washed with IP washing buffer and analyzed by western blotting.

[4] = target: T2, Human ErbB2, wild type, full length (human, UniProt P04626 23-1255); assay: ELISA; ErbB2 captured from lysates of ErbB2-transfected CHO-K1 cells by an antibody to its cytoplasmic tail, His-tagged PEPD detected with anti-His
T2 construct: whole, on cells; Three sources: CHO-K1 cells transiently transfected with pCMV6-XL5-ERBB2, CHO-K1/ErbB2 cells expressing it stably, and BT-474 cells where it is endogenous; The ELISA and the immunoprecipitations used cell lysates; The other assays used living cells; also called WT-ErbB2; Her2
From the text: (§1) Overexpression of human ErbB2 in CHO-K1 cells was readily achieved by gene transfection (FIG. 1b). […] Next, we removed the four ECD subdomains of human ErbB2 one at a time (FIG. 1d), using the ErbB2-expressing plasmid pCMV6-XL5-ERBB2 as a template. Similar protein expression levels of ErbB2 and its mutants were detected in CHO-K1 cells transiently transfected with the plasmids (FIG. 1d). An equal amount of ErbB2 and its mutants, based on western blot quantification, were used in the same ELISA mentioned above. […] Thus, PEPD bound to D3, but D2 and D4, the latter in particular, may facilitate PEPD binding to ErbB2.
(§2) ELISA-based measurement of PEPD and PEPD binding to ErbB2. To measure PEPD binding to human ErbB2 or its deletion mutants, ELISA plates were coated overnight at 4° C. with 100 μl/well of an ErbB2 antibody (binding to the cytoplasmic tail of ErbB2) at 10 μg/ml. After washing the wells three times with PBST, residual protein binding sites in the wells were blocked by incubation for 2 h at room temperature with 300 μl/well of 1% BSA in PBS. […] After three washes with PBST, 100 μl of a biotin-conjugated anti-His antibody (1:10,000 dilution; note that PEPD is His-tagged) was added to each well and incubated for 2 h at room temperature.

[5] = target: T3, ErbB2/delD4, human ErbB2 with deletion of ECD subdomain 4 (deletion of amino acids 489-560) (human, UniProt P04626 23-1255); assay: ELISA, equal amounts of ErbB2 and mutants from lysates of transfected CHO-K1 cells
T3 construct: whole, on cells; Transiently expressed in CHO-K1 cells; also called pCMV6-XL5-ERBB2/delD4
From the text: as §1, §2

[6] = target: T4, ErbB2/delD2, human ErbB2 with deletion of ECD subdomain 2 (deletion of amino acids 196-320) (human, UniProt P04626 23-1255); assay: as above
T4 construct: whole, on cells; Transiently expressed in CHO-K1 cells; also called pCMV6-XL5-ERBB2/delD2
From the text: as §1, §2

[7] = target: T5, ErbB3/ECD-Fc, chimera of the ECD (Ser20-Thr643) of human ErbB3 and Fc (human, UniProt P21860 20-643); assay: pull-down with protein G-sepharose, SDS-PAGE, silver stain
T5 construct: range 20-643; Bought from R&D Systems; also called human ErbB3/ECD-Fc; R&D Systems 348-RB-050; not shown: Fc (of human IgG1)
Description: (§3) Similar protein expression levels of ErbB2 and its mutants were detected in CHO-K1 cells transiently transfected with the plasmids (FIG. 1d). An equal amount of ErbB2 and its mutants, based on western blot quantification, were used in the same ELISA mentioned above. […] Thus, PEPD bound to D3, but D2 and D4, the latter in particular, may facilitate PEPD binding to ErbB2.
(§4) Immunoprecipitation. PEPD was incubated with ErbB2/ECD-Fc, ErbB3/ECD-Fc, ErbB4/ECD-Fc or Fc in binding buffer for 2 h at 37° C., followed by pull down with protein G-sepharose beads. […] For detection of direct and specific binding of PEPD or NRG-1 to ErbB2, ErbB3 or ErbB4, recombinant human PEPD or NRG-1 was incubated with recombinant human ErbB2/ECD-Fc, recombinant human ErbB3/ECD-Fc, recombinant human ErbB4/ECD-Fc or recombinant human Fc in 0.4 ml binding buffer. All solutions were incubated for 2 h at 37° C., followed by incubation with protein G-sepharose beads for 1 h at room temperature. […] In experiments using whole cell lysates, cells were lysed in M-PER buffer supplemented with a proteinase inhibitor mix (Roche Applied Science), and the lysates were incubated with a specific antibody overnight at 4° C., followed by pull down by protein G-agarose. […]

[8] = target: T6, ErbB4/ECD-Fc, chimera of the ECD (Gln26-Arg649) of human ErbB4 and the Fc (human, UniProt Q15303 26-649); assay: as above
T6 construct: range 26-649; Bought from R&D Systems; also called human ErbB4/ECD-Fc; R&D Systems 1131-ER-050; not shown: Fc (of human IgG1)
T6 sequence (looked up): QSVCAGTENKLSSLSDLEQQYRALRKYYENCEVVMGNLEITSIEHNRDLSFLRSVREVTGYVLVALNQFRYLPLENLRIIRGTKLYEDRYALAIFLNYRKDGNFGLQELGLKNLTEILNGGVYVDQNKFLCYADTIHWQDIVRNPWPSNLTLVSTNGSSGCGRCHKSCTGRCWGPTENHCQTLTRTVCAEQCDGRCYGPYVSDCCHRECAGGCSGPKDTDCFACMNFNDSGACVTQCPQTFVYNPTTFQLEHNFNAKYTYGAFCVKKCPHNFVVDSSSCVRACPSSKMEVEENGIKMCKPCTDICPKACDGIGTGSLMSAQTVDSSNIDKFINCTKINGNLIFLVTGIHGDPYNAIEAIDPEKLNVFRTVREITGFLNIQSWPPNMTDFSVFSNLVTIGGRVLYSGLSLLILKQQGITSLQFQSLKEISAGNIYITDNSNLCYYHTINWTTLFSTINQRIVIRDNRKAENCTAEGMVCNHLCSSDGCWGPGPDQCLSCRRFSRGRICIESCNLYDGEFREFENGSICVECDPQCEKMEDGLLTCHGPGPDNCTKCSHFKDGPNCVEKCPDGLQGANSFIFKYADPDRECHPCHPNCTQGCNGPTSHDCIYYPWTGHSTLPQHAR
Description: as §3, §4

T5 sequence (P21860 20-643 limits assumed, change not shown): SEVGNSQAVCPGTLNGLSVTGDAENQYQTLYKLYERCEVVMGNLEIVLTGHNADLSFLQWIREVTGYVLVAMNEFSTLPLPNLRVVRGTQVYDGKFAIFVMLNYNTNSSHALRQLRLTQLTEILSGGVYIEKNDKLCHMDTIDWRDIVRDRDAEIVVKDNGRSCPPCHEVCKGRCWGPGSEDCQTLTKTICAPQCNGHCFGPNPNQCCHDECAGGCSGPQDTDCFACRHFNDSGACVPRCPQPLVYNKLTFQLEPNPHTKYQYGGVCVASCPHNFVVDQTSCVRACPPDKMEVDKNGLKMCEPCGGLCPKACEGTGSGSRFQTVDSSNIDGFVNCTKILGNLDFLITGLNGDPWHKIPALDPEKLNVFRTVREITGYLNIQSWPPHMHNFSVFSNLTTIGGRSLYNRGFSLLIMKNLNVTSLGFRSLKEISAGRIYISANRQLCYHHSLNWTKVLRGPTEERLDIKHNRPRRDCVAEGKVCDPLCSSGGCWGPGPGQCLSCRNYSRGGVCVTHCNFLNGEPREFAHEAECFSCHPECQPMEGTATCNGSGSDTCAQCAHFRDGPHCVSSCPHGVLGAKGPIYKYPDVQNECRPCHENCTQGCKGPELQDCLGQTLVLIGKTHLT

Recombinant human PEPD (peptidase D, prolidase), wild type, 6×His tagged at the carboxy terminus (from UniProt P12955 1-493)
Kd [1]: 25.9 nM
Kd [2]: 372 nM

B1: Recombinant human PEPD (peptidase D, prolidase), wild type, 6×His tagged at the carboxy terminus (ligand)
chain: MAAATGPSFWLGNETLKVPLALFALNRQRLCERLRKNPAVQAGSIVVLQGGEETQRYCTDTGVLFLQESFFHWAFGVTEPGCYGVIDVDTGKSTLFVPRLPASHATWMGKIHSKEHFKEKYAVDDVQYVDEIASVLTSQKPSVLLTLRGVNTDSGSVCREASFDGISKFEVNNTILHPEIVESRVFKTDMELEVLRYTNKISSEAHREVMKAVKVGMKEYGLESLFEHYCYSRGGMRHSSYTCICGSGENSAVLHYGHAGAPNDRTIQNGDMCLFDMGGEYYSVASDITCSFPRNGKFTADQKAVYEAVLLSSRAVMGAMKPGDWWPDIDRLADRIHLEELAHMGILSGSVDAMVQAHLGAVFMPHGLGHFLGIDVHDVGGYPEGVERIDEPGLRSLRTARHLQPGMVLTVEPGIYFIDHLLDEALADPARASFLNREVLQRFRGFGGVRIEEDVVVIDSGIELLTCVPRTVEEIEACMAGCDKAFTPFSGPKHHHHHH
notes: Made in bacteria (pBAD/Thio-TOPO, without the N-terminal Thio) and purified on nickel; also called WT-PEPD; rhPEPD
binding result [3]: no binding (tested: 1 µM PEPD)
Kd [4]: 7.3 nM
fold reduction of binding affinity against wild-type ErbB2 [5]: 51 fold
fold reduction of binding affinity against wild-type ErbB2 [6]: 3.5 fold
binding result [7]: no binding (tested: PEPD 1 µM with 0.04 µM ErbB3/ECD-Fc)
binding result [8]: no binding (tested: PEPD 1 µM with 0.04 µM ErbB4/ECD-Fc)
